{"source": "paper PMC3823977", "about": "“Protein Interaction Analysis of Senataxin and the ALS4 L389S Mutant Yields Insights into Senataxin Post-Translational Modification and Uncovers Mutant-Specific Binding with a Brain Cytoplasmic RNA-Encoded Peptide” (PLoS ONE, 2013)", "proteins": {"B1": {"name": "recombinant amino-terminal senataxin (1–600), GST cleaved (domain or fragment, human, UniProt Q7Z333-1 1-600, looked up)", "chain": "MSTCCWCTPGGASTIDFLKRYASNTPSGEFQTADEDLCYCLECVAEYHKARDELPFLHEVLWELETLRLINHFEKSMKAEIGDDDELYIVDNNGEMPLFDITGQDFENKLRVPLLEILKYPYLLLHERVNELCVEALCRMEQANCSFQVFDKHPGIYLFLVHPNEMVRRWAILTARNLGKVDRDDYYDLQEVLLCLFKVIELGLLESPDIYTSSVLEKGKLILLPSHMYDTTNYKSYWLGICMLLTILEEQAMDSLLLGSDKQNDFMQSILHTMEREADDDSVDPFWPALHCFMVILDRLGSKVWGQLMDPIVAFQTIINNASYNREIRHIRNSSVRTKLEPESYLDDMVTCSQIVYNYNPEKTKKDSGWRTAICPDYCPNMYEEMETLASVLQSDIGQDMRVHNSTFLWFIPFVQSLMDLKDLGVAYIAQVVNHLYSEVKEVLNQTDAVCDKVTEFFLLILVSVIELHRNKKCLHLLWVSSQQWVEAVVKCAKLPTTAFTRSSEKSSGNCSKGTAMISSLSLHSMPSNSVQLAYVQLIRSLLKEGYQLGQQSLCKRFWDKLNLFLRGNLSLGWQLTSQETHELQSCLKQIIRNIKFKAP", "notes": "vector pGEX-4T-2; also called purified senataxin peptide; source: E. coli, GST-tagged, purified after in vitro cleavage"}}, "molecular_target": "the molecule itself", "experiment": "SEC; size-exclusion chromatography of recombinant senataxin (1–600) after cleavage from GST"}
{"protein": "B1", "values": [{"measurement": "stoichiometry N", "value": 2}]}
